The values below come from patent publication US20240261333A1 (published 2024).

Holding throughout (assay): co-IP with anti-FLAG, mass spectrometry; lysate of cells with N-FLAG B3GNT2
The target of assay [1] is RPL32 (human, UniProt P62910 2-135).
In assay [2] the target is T1, TOR1AIP2 (human, UniProt Q8NFQ8 2-470).
T1 construct: also called NP_001336864.1 (+1)

Assay [3] has as its target T2, CCT2 (human, UniProt P78371-2 1-488, limits assumed).
T2 construct: also called NP_001185771.1 (+1)
T2 sequence (looked up): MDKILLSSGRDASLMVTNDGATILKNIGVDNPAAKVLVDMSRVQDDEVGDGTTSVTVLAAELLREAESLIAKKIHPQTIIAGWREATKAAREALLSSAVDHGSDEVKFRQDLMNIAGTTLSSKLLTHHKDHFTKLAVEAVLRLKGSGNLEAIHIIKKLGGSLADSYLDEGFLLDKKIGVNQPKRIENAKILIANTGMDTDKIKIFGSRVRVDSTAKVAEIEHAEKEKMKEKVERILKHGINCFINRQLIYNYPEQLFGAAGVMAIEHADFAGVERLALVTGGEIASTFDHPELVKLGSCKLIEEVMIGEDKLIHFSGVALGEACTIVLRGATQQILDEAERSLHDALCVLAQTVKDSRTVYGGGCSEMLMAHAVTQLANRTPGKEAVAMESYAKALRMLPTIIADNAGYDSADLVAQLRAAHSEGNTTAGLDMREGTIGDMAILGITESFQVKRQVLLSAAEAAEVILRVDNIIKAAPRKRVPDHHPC

Assay [4] deals with T3, NPM1 (human, UniProt P06748 1-294).
T3 construct: also called NP_001341935.1 (+1)

The target of assay [5] is T4, GALNT2 (human, UniProt Q10471 1-571, limits assumed).
T4 construct: also called NP_001278795.1 (+1)

Assay [6] addresses T5, STAU2 (human, UniProt Q9NUL3 1-570, limits assumed).
T5 construct: also called NP_001157852.1 (+4)
T5 sequence (looked up): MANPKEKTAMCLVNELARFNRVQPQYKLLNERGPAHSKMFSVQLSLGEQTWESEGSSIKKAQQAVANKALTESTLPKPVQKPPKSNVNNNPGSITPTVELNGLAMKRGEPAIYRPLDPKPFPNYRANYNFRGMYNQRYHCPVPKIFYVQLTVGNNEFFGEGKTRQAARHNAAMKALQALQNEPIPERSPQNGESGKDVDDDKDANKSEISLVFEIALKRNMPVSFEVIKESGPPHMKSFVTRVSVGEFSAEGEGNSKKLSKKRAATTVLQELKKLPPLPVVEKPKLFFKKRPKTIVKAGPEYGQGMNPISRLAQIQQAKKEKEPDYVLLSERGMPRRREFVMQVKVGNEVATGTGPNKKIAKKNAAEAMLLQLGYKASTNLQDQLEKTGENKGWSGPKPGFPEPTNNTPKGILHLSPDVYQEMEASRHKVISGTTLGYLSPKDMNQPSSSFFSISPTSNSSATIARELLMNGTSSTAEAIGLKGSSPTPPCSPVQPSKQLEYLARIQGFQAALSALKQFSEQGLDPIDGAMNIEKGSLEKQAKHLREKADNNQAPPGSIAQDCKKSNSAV

In assay [7] the target is RPL26 (human, UniProt P61254 1-145).
Assay [8] addresses T6, CD70 (human, UniProt P32970 1-193).
T6 construct: also called NP_001243.1
T6 sequence (looked up): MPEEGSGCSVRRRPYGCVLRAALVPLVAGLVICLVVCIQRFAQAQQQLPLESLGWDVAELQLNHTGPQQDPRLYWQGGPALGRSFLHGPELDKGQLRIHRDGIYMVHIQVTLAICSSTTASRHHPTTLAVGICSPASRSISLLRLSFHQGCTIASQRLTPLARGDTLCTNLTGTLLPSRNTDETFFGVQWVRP

T3 sequence (P06748 whole entry): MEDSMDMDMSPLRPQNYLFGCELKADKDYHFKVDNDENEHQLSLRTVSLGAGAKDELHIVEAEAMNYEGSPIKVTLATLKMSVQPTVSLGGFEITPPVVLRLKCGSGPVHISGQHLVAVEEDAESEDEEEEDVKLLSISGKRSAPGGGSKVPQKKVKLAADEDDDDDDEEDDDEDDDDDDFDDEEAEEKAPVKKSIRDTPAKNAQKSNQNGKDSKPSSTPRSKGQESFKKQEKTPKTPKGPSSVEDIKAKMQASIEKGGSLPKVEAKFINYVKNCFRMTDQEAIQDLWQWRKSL
T1 sequence (Q8NFQ8 2-470 limits assumed): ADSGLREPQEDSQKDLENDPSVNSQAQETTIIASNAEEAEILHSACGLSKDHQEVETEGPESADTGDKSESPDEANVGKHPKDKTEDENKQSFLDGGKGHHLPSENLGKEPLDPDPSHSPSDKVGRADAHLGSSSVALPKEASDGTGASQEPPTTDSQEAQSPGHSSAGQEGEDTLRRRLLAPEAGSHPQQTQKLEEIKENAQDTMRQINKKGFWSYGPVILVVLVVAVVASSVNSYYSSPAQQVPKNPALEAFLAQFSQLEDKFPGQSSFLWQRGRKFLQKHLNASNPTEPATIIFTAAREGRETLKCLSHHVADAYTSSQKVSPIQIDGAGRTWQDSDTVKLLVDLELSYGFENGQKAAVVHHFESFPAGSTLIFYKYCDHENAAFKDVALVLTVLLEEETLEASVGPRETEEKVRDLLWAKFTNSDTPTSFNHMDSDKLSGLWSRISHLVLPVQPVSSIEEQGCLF
T4 sequence (Q10471 whole entry): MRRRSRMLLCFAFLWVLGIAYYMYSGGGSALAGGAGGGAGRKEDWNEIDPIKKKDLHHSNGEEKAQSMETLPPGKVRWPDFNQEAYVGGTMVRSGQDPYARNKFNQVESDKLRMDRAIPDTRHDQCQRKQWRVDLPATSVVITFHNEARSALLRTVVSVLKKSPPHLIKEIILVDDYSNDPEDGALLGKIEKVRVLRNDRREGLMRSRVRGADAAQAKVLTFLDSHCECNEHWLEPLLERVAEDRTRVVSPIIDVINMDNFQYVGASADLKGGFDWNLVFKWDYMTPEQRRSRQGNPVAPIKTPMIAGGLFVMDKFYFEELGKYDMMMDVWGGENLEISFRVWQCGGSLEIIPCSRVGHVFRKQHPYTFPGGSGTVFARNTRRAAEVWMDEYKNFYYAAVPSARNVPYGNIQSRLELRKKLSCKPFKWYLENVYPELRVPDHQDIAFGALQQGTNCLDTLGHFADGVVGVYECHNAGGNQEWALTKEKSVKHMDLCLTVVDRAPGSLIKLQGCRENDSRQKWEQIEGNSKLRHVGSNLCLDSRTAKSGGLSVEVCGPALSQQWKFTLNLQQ

B1: N-terminal FLAG tagged B3GNT2 (enzyme, human, UniProt Q9NY97 1-397, looked up)
chain: MSVGRRRIKLLGILMMANVFIYFIMEVSKSSSQEKNGKGEVIIPKEKFWKISTPPEAYWNREQEKLNRQYNPILSMLTNQTGEAGRLSNISHLNYCEPDLRVTSVVTGFNNLPDRFKDFLLYLRCRNYSLLIDQPDKCAKKPFLLLAIKSLTPHFARRQAIRESWGQESNAGNQTVVRVFLLGQTPPEDNHPDLSDMLKFESEKHQDILMWNYRDTFFNLSLKEVLFLRWVSTSCPDTEFVFKGDDDVFVNTHHILNYLNSLSKTKAKDLFIGDVIHNAGPHRDKKLKYYIPEVVYSGLYPPYAGGGGFLYSGHLALRLYHITDQVHLYPIDDVYTGMCLQKLGLVPEKHKGFRTFDIEEKNKNNICSYVDLMLVHSRKPQEMIDIWSQLQSAHLKC
notes: Bait of the co-IP; pulled down with mouse anti-FLAG (Millipore Sigma F3165) from cell lysate; also called N-FLAG B3GNT2; N-term FLAG; not shown: N-terminal FLAG tag
Consider B1, for which the “co-IP mass spectrometry count” value in assay [1], in assay [2], in assay [3], in assay [4], in assay [5] and in assay [6] was 0 in each case. For the same molecule, the results for the “co-IP mass spectrometry count” value in assay [7] and in assay [8] were 7 and 0, respectively.
